From the supplement of paper PMC6757056
± gives the standard deviation of the averaged measurements.

B1: library; a variant is named by its letters at N, in order (parent)
chain: GCUGUCACCGGUGUAUUACCCUAGUGGUCGACCGGUCUGAUGAGUCUNNNNNNAGACGAAACAGC

Experiments:
[1] = variants of: B1; test: normalized RNA/DNA level with ligand (relative to sTRSVctl = 100) (log10 (% of sTRSVctl)); ligand: hypoxanthine (xanthine aptamer); higher = less ribozyme self-cleavage, higher mRNA level; conditions: ligand concentration (+) RNA-Seq: 5 mM, HEK293T, reporter: mCherry (pCS4076), ligand present: yes
Method in brief: (§1)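 Total RNA, extracted with EDTA 72 h after HEK293T cells were transfected with 4 µg per 6-well well of reporter-linked ribozyme switch library plasmids, was reverse-transcribed, amplified, barcoded and sequenced. Ligand, if used, was added 1 h before transfection. RNA level was derived from RNA reads divided by DNA reads and normalized to a spiked-in non-cleaving sequence or to the top sequences. This was multiplied by 100 and log10-transformed, with the top set of 25 sequences and a ≥100 DNA read minimum.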

[2] = variants of: B1; test: normalized RNA/DNA level without ligand (relative to sTRSVctl = 100) (log10 (% of sTRSVctl)); ligand: hypoxanthine (xanthine aptamer); higher = less ribozyme self-cleavage, higher mRNA level; conditions: HEK293T, reporter: mCherry (pCS4076), ligand present: no
Method in brief: as §1

[3] = variants of: B1; test: FACS-Seq fitted mean relative fluorescence mCherry/BFP without ligand (log10 relative fluorescence); ligand: hypoxanthine (xanthine aptamer); higher = higher reporter protein expression; conditions: HEK293T, ligand present: no
Method in brief: (§2)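 Genomic DNA from 6 mCherry/BFP sort bins was PCR-amplified, barcoded and sequenced on MiSeq. The sorted cells were enriched HEK293T libraries, lentivirally transduced with a ribozyme-switch mCherry reporter and an EF1α-BFP marker, incubated with or without ligand for 48 h. Fluorescence derives from a normal fit to the bin counts. The fit was on log10(mCherry/BFP), and means were scaled to five spiked-in control ribozymes.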

[4] = variants of: B1; test: FACS-Seq fitted mean relative fluorescence mCherry/BFP with ligand (log10 relative fluorescence); ligand: hypoxanthine (xanthine aptamer); ligand concentration (+) FACS-Seq: 5 mM; higher = higher reporter protein expression; conditions: HEK293T, ligand present: yes
Method in brief: as §2

Variant	normalized RNA/DNA level with ligand (log10) [1]	normalized RNA/DNA level without ligand (log10) [2]	FACS-Seq fitted mean (log10) [3]	FACS-Seq fitted mean (log10) [4]
CAAACA	1.93 ± 0.061	1.75 ± 0.039		
CAAACU	1.94 ± 0.039	1.9 ± 0.035		
CAAACG	1.906 ± 0.0079	1.87 ± 0.06		
AAAACC	1.93 ± 0.033	1.876 ± 0.018		
UAAAUC	1.93 ± 0.044	1.97 ± 0.028		
AUUGCG	1.857 ± 0.015	1.41 ± 0.065	-0.0459 ± 0.021	0.458 ± 0.028
AAACUA	1.89 ± 0.043	1.7704 ± 0.0017		
AAACUC	1.95 ± 0.035	1.95 ± 0.021		
CAACCG	1.95 ± 0.096	1.89 ± 0.028		
CAACCC	1.98 ± 0.012	1.855 ± 0.011		
CAACCU	1.98 ± 0.049	1.911 ± 0.0025		
CAACCA	1.95 ± 0.066	1.803 ± 0.0098		
CUGUGG	1.91 ± 0.027	1.45 ± 0.089	0.575 ± 0.018	0.842 ± 0.073
GUUGGG	1.89 ± 0.025	1.52 ± 0.029	0.375 ± 0.11	0.635 ± 0.028
GUUUCC	1.95 ± 0.089	2.03 ± 0.06	0.703 ± 0.042	0.641 ± 0.02
UUUAGU	1.93 ± 0.043	1.83 ± 0.064	0.632 ± 0.16	0.638 ± 0.11
UUUAGC	1.95 ± 0.061	1.88 ± 0.037	0.28 ± 0.015	0.555 ± 0.04
UUUAGG	1.9004 ± 0.0014	1.83 ± 0.0068	0.0978 ± 0.0074	0.462 ± 0.026
UAACAC	1.91 ± 0.05	1.7 ± 0.053		
UAACAU	1.919 ± 0.013	1.78 ± 0.024		
CUUACC	1.91 ± 0.046	1.907 ± 0.0033	0.555 ± 0.022	0.393 ± 0.022
AUUGUG	1.8 ± 0.023	1.39 ± 0.034	0.0887 ± 0.00064	0.469 ± 0.1
GUUCAA	1.89 ± 0.075	1.79 ± 0.042	0.0385 ± 0.025	0.294 ± 0.0042
GUGUGC	1.801 ± 0.013	1.36 ± 0.089	0.169 ± 0.0029	0.597 ± 0.033
GUGUGG	1.807 ± 0.0054	1.27 ± 0.025	0.0226 ± 0.011	0.5793 ± 0.0024
GUGUGA	1.905 ± 0.0085	1.58 ± 0.026	0.33 ± 0.037	0.67 ± 0.024
GUGUGU	1.894 ± 0.0042	1.64 ± 0.023	0.3521 ± 0.0033	0.466 ± 0.13

Variant	normalized RNA/DNA level with ligand (log10) [1]	normalized RNA/DNA level without ligand (log10) [2]	FACS-Seq fitted mean (log10) [3]	FACS-Seq fitted mean (log10) [4]
AUUGGU	1.89 ± 0.048	1.66 ± 0.084	0.357 ± 0.04	0.601 ± 0.029
AUUGGA	1.944 ± 0.0073	1.647 ± 0.013	0.196 ± 0.12	0.374 ± 0.042
AUUGGG	1.87 ± 0.085	1.36 ± 0.03	0.0996 ± 0.0053	0.592 ± 0.018
CUUCCC	1.9 ± 0.021	1.9406 ± 0.0018	-0.199 ± 0.041	0.0439 ± 0.038
AAACAC	1.885 ± 0.011	1.712 ± 0.0056		
UUGUAU	1.94 ± 0.077	1.93 ± 0.026	-0.614 ± 0.05	-0.338 ± 0.072
UAAAAG	1.87 ± 0.025	1.627 ± 0.011		
AUGUGA	1.849 ± 0.0086	1.56 ± 0.1	0.242 ± 0.018	0.68 ± 0.028
AUGUGG	1.756 ± 0.0083	1.27 ± 0.11	-0.193 ± 0.082	-0.0634 ± 0.1
AUGUGU	1.86 ± 0.02	1.53 ± 0.059	-0.337 ± 0.023	0.155 ± 0.022
UUUGAG	1.88 ± 0.027	1.54 ± 0.021	0.198 ± 0.18	0.502 ± 0.067
UUUGAA	1.9 ± 0.041	1.75 ± 0.036	0.522 ± 0.076	0.351 ± 0.04
GUGGGU	1.94 ± 0.021	1.79 ± 0.018	0.152 ± 0.061	0.626 ± 0.031
GUGGGA	1.9229 ± 0.0017	1.68 ± 0.053	-0.0656 ± 0.016	0.178 ± 0.067
GUGGGG	1.841 ± 0.016	1.45 ± 0.029	0.0309 ± 0.01	0.399 ± 0.07
AAACGC	1.91 ± 0.063	1.68 ± 0.021		
GUUAGA	1.905 ± 0.0029	1.694 ± 0.0036	0.572 ± 0.13	0.619 ± 0.075
GUUAGG	1.8 ± 0.045	1.38 ± 0.033	0.451 ± 0.026	0.648 ± 0.03
CAACAA	1.88 ± 0.03	1.701 ± 0.015		
CAACAG	1.92 ± 0.021	1.717 ± 0.013		
AUUUGC	1.91 ± 0.043	1.783 ± 0.0061	0.485 ± 0.047	0.704 ± 0.052
AUUUGU	1.923 ± 0.01	1.638 ± 0.013	0.6123 ± 2.1e-06	0.723 ± 0.041
AUUUGA	1.91 ± 0.033	1.6633 ± 0.00044	0.636 ± 0.085	0.602 ± 0.16
AUGGUG	1.79 ± 0.062	1.331 ± 0.0014	-0.243 ± 0.17	0.0458 ± 0.031
AUGGUC	2 ± 0.036	1.92 ± 0.033	0.812 ± 0.048	0.6851 ± 0.0041
AUGGUA	1.86 ± 0.045	1.73 ± 0.048	0.303 ± 0.033	0.304 ± 0.016
CAAAUU	1.95 ± 0.029	1.806 ± 0.014		

Variant	normalized RNA/DNA level with ligand (log10) [1]	normalized RNA/DNA level without ligand (log10) [2]	FACS-Seq fitted mean (log10) [3]	FACS-Seq fitted mean (log10) [4]
CAAAUG	1.913 ± 0.011	1.82 ± 0.041		
AUUCCU	1.922 ± 0.0034	1.89 ± 0.064	0.507 ± 0.036	0.567 ± 0.011
AUUCCG	1.93 ± 0.021	1.589 ± 0.013	0.126 ± 0.023	0.296 ± 0.031
UUUUAU	1.96 ± 0.018	1.85 ± 0.06	0.589 ± 0.097	0.296 ± 0.011
GUGUUG	1.83 ± 0.048	1.34 ± 0.11	0.222 ± 0.012	0.559 ± 0.033
GAACGU	1.9 ± 0.037	1.688 ± 0.014		
GUUAAU	1.9 ± 0.02	1.8 ± 0.067	0.528 ± 0.024	0.566 ± 0.0099
GUUAAC	1.95 ± 0.021	1.8064 ± 0.0016	0.164 ± 0.008	-0.269 ± 0.1
UUUUGA	1.98 ± 0.031	1.63 ± 0.023	0.455 ± 0.043	0.5 ± 0.019
CUGUCA	2 ± 0.058	1.86 ± 0.037	0.49 ± 0.048	0.439 ± 0.09
GUUUUG	1.9 ± 0.084	1.567 ± 0.002	0.498 ± 0.038	0.551 ± 0.047
GUUUUU	1.941 ± 0.0034	1.93 ± 0.05	0.142 ± 0.041	0.1 ± 0.015
GUUUUC	1.92 ± 0.025	1.952 ± 0.01	-0.0599 ± 0.0079	-0.0383 ± 0.14
GAACCC	1.945 ± 0.0058	1.88 ± 0.026		
GAACCU	1.95 ± 0.043	1.92 ± 0.026		
AUUAUA	1.928 ± 0.019	1.81 ± 0.028	0.24 ± 0.022	0.402 ± 0.063
AUUAUU	1.91 ± 0.0029	1.881 ± 0.011	0.5583 ± 0.0011	0.668 ± 0.014
GUUACG	1.88 ± 0.03	1.59 ± 0.027	0.564 ± 0.075	0.566 ± 0.043
GUUACU	1.946 ± 0.0064	1.89 ± 0.06	0.523 ± 0.11	0.466 ± 0.036
GUUACC	1.91 ± 0.057	1.882 ± 0.018	-0.307 ± 0.2	-0.559 ± 0.021
UUGUGG	2.01 ± 0.025	1.89 ± 0.0069	0.447 ± 0.013	0.511 ± 0.067
GUUGUU	1.969 ± 0.0045	1.9 ± 0.029	0.56 ± 0.026	0.67542 ± 0.00062
GUUGUA	1.9 ± 0.025	1.84 ± 0.032	0.455 ± 0.0078	0.632 ± 0.012
GUUGUG	1.83 ± 0.042	1.39 ± 0.028	0.225 ± 0.066	0.406 ± 0.14
GUUGAG	1.81 ± 0.019	1.34 ± 0.038	0.255 ± 0.018	0.659 ± 0.082
GUUGAU	1.936 ± 0.015	1.79 ± 0.021	0.224 ± 0.074	0.303 ± 0.031
